Data: patent US20200262913A1 (ZymoGenetics, published 2020)

T1: recombinant human IL-31 (as used in the NHK STAT3 phosphorylation assay of Example 5) (human, UniProt Q6EBC2 24-164, limits assumed)
T1 sequence: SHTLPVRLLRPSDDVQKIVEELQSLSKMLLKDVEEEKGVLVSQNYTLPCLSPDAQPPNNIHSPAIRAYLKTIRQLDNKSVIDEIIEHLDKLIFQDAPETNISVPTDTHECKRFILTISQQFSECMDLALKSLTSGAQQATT

T2: recombinant human IL-31 (hIL-31, BHK produced, A1277F, zcytor17lig CEE) (human, UniProt Q6EBC2 24-164)
T2 construct: also called recombinant hIL-31
T2 sequence: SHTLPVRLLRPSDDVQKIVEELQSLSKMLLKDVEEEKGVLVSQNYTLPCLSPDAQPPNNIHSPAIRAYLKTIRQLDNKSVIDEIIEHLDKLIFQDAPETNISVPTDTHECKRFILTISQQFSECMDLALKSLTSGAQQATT


Key:
[1] = target: T1, recombinant human IL-31 (as used in the …); assay: cell-based or functional assay
[2] = target: recombinant human IL-31 (C108S), produced in E. coli by ZymoGenetics, MW 18 kDa (human), Q6EBC2; assay: cell-based or functional assay
[3] = target: T2, recombinant human IL-31 (hIL-31, BHK …); assay: SPR (Biacore), against parent 292.12.3.1
Description: (§1) The purified monoclonal antibodies were immobilized in individual flow cells on a CM5 type sensor chip. Immobilizations were performed using a standard amine coupling procedure, aiming for an immobilization level of 500 Resonance Units (RU). The antibodies were diluted to 1-5 ug/ml in 10 mM NaAc pH 4.5.
(§2) HPS-EP pH 7.4 (10 mM HEPES, 150 mM NaCl, 3 mM EDTA and 0.005% Polysorbat P20) was used as running buffer, and diluents for the recombinant hIL-31 (hIL-31, BHK produced, A1277F, zcytor17lig CEE). The hIL-31 was tested in a 3-fold dilution series from 333.3 nM to 1.4 nM. Association (injection) was 4 min., followed by a 20 min. dissociation (wash) period. Flow rate was 50 ul/min. Experiments were performed at 25OC. Regeneration of the surface was accomplished by injection of 30 sec. pulse of 10 mM Glycin-HCl pH 1.8 or 1M formic acid, at a 30 ul/min flow rate. Detection in all flow cells simultaneously. Flow cell #1 contained no immobilized antibody, and was used for subtraction of background and bulk.
(§3) The kinetic parameters were calculated by global fitting of the data using a 1:1 langmuir binding model. Data was inspected for mass-transport limitations prior to calculation of the kinetic parameters. In some experiments the Rmax was fitted locally, and the RI constant at 0.

[4] = target: T2, recombinant human IL-31 (hIL-31, BHK …); assay: SPR (Biacore), mAb amine-coupled to CM5 chip, hIL-31 injected
Description: as §1, §2, §3

| Binder | IC50, IL-31-induced STAT3 phosphorylation in NHK, Exp 8 [1] [nM] | IC50, IL-31-induced STAT3 phosphorylation in NHK, Exp 9 [1] [nM] | Average Fold loss in potency relative to 292.12.3.1, BAF-3(hIL-31R) proliferation assay [2] [fold] | Average Potency (IC50), inhibition of hIL-31-induced proliferation of BAF-3(hIL-31R) cells [2] [nM] | Relative potency loss (KD) [3] | Kd [4] [nM] | koff [4] [s⁻¹] | kon [4] [M⁻¹ s⁻¹] | IC50, IL-31-induced STAT3 phosphorylation in NHK, Exp 10 [1] [nM] | Relative potency loss (kd) [3] |
| --- | --- | --- | --- | --- | --- | --- | --- | --- | --- | --- |
| humanized 292.12.3.1 construct clone 32 (12VH1-gly + HC(F29L, R71A, V78A, R94F) + LC(F71Y)) (antibody, human IgG4, V domains shown) VH: QVQLVQSGAEVKKPGASVKVSCKASGYTLTRYWMQWVRQAPGQGLEWMGAIYPGDGDTRYSQKFQGRVTMTADTSISTAYMELSSLRSEDTAVYYCAFPDGYYAAPYGMDYWGQGTLVTVSS VL: DIQMTQSPSSLSASVGDRVTITCRASGNIHNYLAWYQQKPGKVPKLLIYNAKTLADGVPSRFSGSGSGTDYTLTISSLQPEDVATYYCQHFWSTPWTFGQGTKVEIKR | 11.5 | 6.43 | 14.7 | 18.9 | ~0.3 x to parent | 0.64 | 5.9e-05 | 93000 |  |  |
| humanized 292.12.3.1 construct clone 36 (12VH1(germ)-gly + HC(F29L, T73K, R94F) + LC(F71Y)) (antibody, human IgG4, V domains shown) VH: QVQLVQSGAEVKKPGASVKVSCKASGYTLTRYWMQWVRQAPGQGLEWMGAIYPGDGDTRYSQKFQGRVTMTRDKSTSTVYMELSSLRSEDTAVYYCAFPDGYYAAPYGMDYWGQGTLVTVSS VL: DIQMTQSPSSLSASVGDRVTITCRASGNIHNYLAWYQQKPGKVPKLLIYNAKTLADGVPSRFSGSGSGTDYTLTISSLQPEDVATYYCQHFWSTPWTFGQGTKVEIKR |  |  |  | 14.1 | ~0.5 x to parent | 1.6 | 0.000108 | 68000 | 8.95 | ~1.5 x to parent |

The remaining binders from weak to strong by Kd [4], led by results:

| IC50, IL-31-induced STAT3 phosphorylation in NHK, Exp 8 [1] [nM] | IC50, IL-31-induced STAT3 phosphorylation in NHK, Exp 9 [1] [nM] | Average Fold loss in potency relative to 292.12.3.1, BAF-3(hIL-31R) proliferation assay [2] [fold] | Average Potency (IC50), inhibition of hIL-31-induced proliferation of BAF-3(hIL-31R) cells [2] [nM] | Relative potency loss (KD) [3] | Kd [4] [nM] | koff [4] [s⁻¹] | kon [4] [M⁻¹ s⁻¹] | IC50, IL-31-induced STAT3 phosphorylation in NHK, Exp 10 [1] [nM] | Relative potency loss (kd) [3] | Binder |
| --- | --- | --- | --- | --- | --- | --- | --- | --- | --- | --- |
|  |  | 75.1 | 62.1 | ~0.7 x to parent | 1.6 | 0.0001 | 64000 | 12 | ~1.5 x to parent | humanized 292.12.3.1 construct clone 35 (12VH1-gly + HC(F29L, R94F)) (antibody, human IgG4, V domains shown) VH: QVQLVQSGAEVKKPGASVKVSCKASGYTLTRYWMQWVRQAPGQGLEWMGAIYPGDGDTRYSQKFQGRVTMTRDTSISTVYMELSSLRSEDTAVYYCAFPDGYYAAPYGMDYWGQGTLVTVSS VL: DIQMTQSPSSLSASVGDRVTITCRASGNIHNYLAWYQQKPGKVPKLLIYNAKTLADGVPSRFSGSGSGTDFTLTISSLQPEDVATYYCQHFWSTPWTFGQGTKVEIKR |
| 4.08 | 5.68 | 2.3 | 3.1 | ~0.6 x to parent | 1.3 | 6.8e-05 | 52000 | 13.6 |  | humanized 292.12.3.1 construct clone 33 (12VH1(germ)-gly + fback) (antibody, human IgG4, V domains shown) VH: QVQLVQSGAEVKKPGASVKVSCKASGYTLTRYWMQWVRQAPGQGLEWMGAIYPGDGDTRYSQKFQGRVTLTADKSTSTAYMELSSLRSEDTAVYYCAFPDGYYAAPYGMDYWGQGTLVTVSS VL: DIQMTQSPSSLSASVGDRVTITCRASGNIHNYLAWYQQKPGKVPKLLIYNAKTLADGVPSRFSGSRSETQYSLTISSLQPEDVATYYCQHFWSTPWTFGQGTKVEIKR |
